Test results as given in PMC11046469, “Leveraging a Phage-Encoded Noncanonical Amino Acid: A Novel Pathway to Potent and Selective Epigenetic Reader Protein Inhibitors” (ACS Central Science, 2024).

Molecular target: T1, ENL YEATS domain (AviSUMO-ENL YEATS) (Homo sapiens, UniProt Q03111)
T1 construct: encoding ENL YEATS (aa 1−148) was cloned in pET28a-; made in house; host or cells: E. coli BL21(DE3pLysS), co-expressed with BirA (pBirAcm)
T1 sequence (Q03111 1-148): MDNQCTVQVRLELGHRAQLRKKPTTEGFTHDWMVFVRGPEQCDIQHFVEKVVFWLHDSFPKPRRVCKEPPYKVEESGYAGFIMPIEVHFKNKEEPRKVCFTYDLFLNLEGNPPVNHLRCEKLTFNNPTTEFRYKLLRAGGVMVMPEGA
Assay: Phage panning of BuK-containing 7-mer library against AviSUMO-ENL YEATS with Illumina NGS abundance
Settings: sheet ENLR3: round 3 of panning against ENL YEATS; TAG = amber codon (BuK); 7-mer library positions V1-V7
Text: We utilized a previously established amber-obligate 7-mer phage display library to develop a phage display library enriched with BuK-containing 7-mer peptides. For detailed characterizations, including analysis of amber codon percentages, NNK trinucleotide analysis, and amino acid distribution at each position within the library, please refer to the work of Tharp et al.[10] Furthermore, the comprehensive raw NGS data for the amber-obligate 7-mer phage library can be found in the NCBI’s Sequence Read Archive, under the accession ID PRJNA606283. To produce the BuK-containing 7-mer phage library, the phages were produced in the presence of 5 mM BuK using TOP10 cells harboring the following three plasmids: (1) pADL-gIII, which contains the 7-mer amber-obligate peptide-coding DNA library positioned at the N-terminus of M13 pIII gene; (2) pCDF-BuKRS, which encodes BuKRS and its cognate tRNA^Pyl for the genetic incorporation of BuK at amber codons in the 7-mer library; and (3) M13KO7TAA, a helper phage plasmid engineered to have a TAA mutation at pIII so that its lack of a functional pIII allows an efficient multivalent display of the 7-mer library. The ENL YEATS domain containing an N-terminal AviSUMO-Tag was recombinantly expressed in E. coli together with BirA, a biotin ligase, for site-specific biotinylation at the AviTag. The biotinylated AviSUMO-ENL YEATS was immobilized on streptavidin-coated magnetic beads for panning with the BuK-containing phages. […] Phage libraries collected from the first and third rounds of selection were sequenced using Illumina next generation sequencing (NGS) and all sequenced data are available through the NCBI SRA database (Project PRJNA1041845). To prevent possible sequencing errors from affecting conclusions, sequences were filtered using previously published paired-end processing,[10] where any sequences containing more than one mismatch in the nonlibrary region or any mismatch in the library region were discarded. The NGS data provided DNA sequences encompassing both the library and nonlibrary regions. In our analysis, we included data from the nonlibrary region as a stringent quality control measure to filter out low-quality data. For our analysis, we utilized 51 nucleotides from the NGS output, with 21 nucleotides encoding the library region and an additional 30 nucleotides for the nonlibrary region. […] Among all the sequences, only 85 of them contained more than 100 copies (blue area), while the remaining sequences all had low abundances (<10^2 copies, dark and light gray areas), which constituted 85.2% of the first round population. After three panning rounds, the selection converged to two highly enriched sequences: YDVYCYX (ENL-S1) and WWIIEXG (ENL-S2, X denotes BuK). Out of 551 different unique sequences collected from the third round, ENL-S1 and ENL-S2 represented 85% of the entire library (Figure 2A and Figures S6–S8). Both peptide sequences corresponded to their own unique DNA sequence, rather than there being varying codons encoding the same amino acids (Figure S7). […] Two motifs were found in the majority of sequences with high abundance (greater than 0.1%) (Figure S6). A Y(C/L)Y pattern was identified in the residues adjacent to BuK in four of the eight top sequences. Also, an H(L/Y)(T/V)LFXG (X denotes BuK) motif was observed, albeit at lower abundances, in two of the top sequences. In the initial round of selection, we observed that only a small percentage of phages were eluted, which aligns with typical outcomes in phage selection experiments since only a low copy number of phages can bind to the target.[10],[45] With each successive round of selection, we noted a gradual increase in the percentage of phages eluted. This incremental, rather than sharp, increase was attributed to the intensification of selection pressures, such as the application of more stringent washing protocols. We aimed for the incremental increase to retain potent clones with low copy numbers from the previous selection cycle. […]

Substance | n (number of NGS reads of the unique amino acid sequence) | percent (share of sequence reads) [%]
LFIALPTAG | 1 | 0.0009106
HLTLFYG | 3 | 0.002732
LWIIETAGG | 26 | 0.02368
WWVFDATAG | 10 | 0.009106
FTAGIYTAA | 1 | 0.0009106
LTAGMPRSF | 1 | 0.0009106
HAIYFYTAG | 1 | 0.0009106
CFFTAGIMC | 1 | 0.0009106
YGVYCYTAG | 13 | 0.01184
FEISEWTAG | 2 | 0.001821
HYFLFTAGG | 1 | 0.0009106
HMTLFTAGG | 1 | 0.0009106
HVIYCYTAG | 2 | 0.001821
YDVHCYTAG | 5 | 0.004553
LLAFLWL | 1 | 0.0009106
SMHACTAGT | 2 | 0.001821
QCGPWTAGD | 4 | 0.003642
WWIIETAGG | 33339 | 30.359
WWIIEKG | 2 | 0.001821
SCVVFTAGI | 2 | 0.001821
MFTAGITDN | 1 | 0.0009106
IQTAGITAS | 1 | 0.0009106
GRAVDTAGG | 1 | 0.0009106
IGSIHYTAG | 1 | 0.0009106
YDVYCTAGTAG | 3 | 0.002732
SWILWTAGG | 8 | 0.007285

Substance | n (number of NGS reads of the unique amino acid sequence) | percent (share of sequence reads) [%]
HAIYCYTAG | 759 | 0.6912
NAIYCYTAG | 1 | 0.0009106
QCVPRTAGD | 5 | 0.004553
VYCYTAGVW | 3 | 0.002732
YDVYCYTAG | 60611 | 55.1932
LTAGTVLDP | 1 | 0.0009106
CDVYCYTAG | 10 | 0.009106
YDFYCYTAG | 51 | 0.04644
RWIIETAGG | 7 | 0.006374
WWIVETAGG | 6 | 0.005464
HLNLFTAGG | 2 | 0.001821
CTYVITAGV | 1 | 0.0009106
TAGCGPRTAGD | 3 | 0.002732
TAIFCYTAG | 3 | 0.002732
WTVYCYTAG | 3 | 0.002732
CWGFEKTAG | 1 | 0.0009106
WWIIETAGD | 23 | 0.02094
WFILYTAGD | 25 | 0.02277
IHVYCTAGV | 1 | 0.0009106
LCGPRTAGD | 1 | 0.0009106
CWVCTAGPH | 74 | 0.06739
IMCYPFTAG | 28 | 0.0255
CLPWTAGSS | 7 | 0.006374
YDIYCYTAG | 3 | 0.002732
WQDTTAGTY | 2 | 0.001821
WWVAGPTAG | 70 | 0.06374

Same assay, conditions: sheet ENLR3: round 3 of selection against ENL YEATS; TAG = amber codon (BuK)

Substance | n (number of NGS reads of the 7-mer sequence V1-V7) | percent (share of NGS reads of the 7-mer sequence V1-V7) [%]
YDVYCYK | 1 | 0.0009106
STVYCYTAG | 1 | 0.0009106
RCGPRTAGD | 1 | 0.0009106
YDGPWTAGG | 1 | 0.0009106
QWGPRTAGD | 1 | 0.0009106
WWFIETAGG | 1 | 0.0009106
NLTLFTAGG | 1 | 0.0009106
YAVYCYTAG | 1 | 0.0009106
SSGTAGKCV | 1 | 0.0009106
YLYTAGVPF | 1 | 0.0009106
YPCVCFTAG | 1 | 0.0009106
QCDPRTAGD | 1 | 0.0009106
TAGGSWVPI | 1 | 0.0009106
STTAGKLFI | 1 | 0.0009106
YLYTAGAPC | 1 | 0.0009106
QCGPRQD | 1 | 0.0009106
